B1: Azoarcus group I ribozyme (parent)
chain: GUGCCUUGCGCCGGGAAACCACGCAAGGGAUGGUGUCAAAUUCGGCGAAACCUAAGCGCCCGCCCGGGCGUAUGGCAACGCCGAGCCAAGCUUCGGCGCCUGCGCCGAUGAAGGUGUAGAGACUAGACGGCACCCACCUAAGGCAAACGCUAUGGUGAAGGCAUAGUCCAGGGAGUGGCGAAAGUCACACAAACCGG

Variants of: B1
Assay: reverse-splicing fitness (ratio to wild type); higher = more active; in vitro selection; Mg2+ level not given
Outline: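 An in vitro group I ribozyme library with randomized positions was T7-transcribed and gel-purified. In triplicate, 10 pmol RNA in EPPS pH 7.5 was reacted with 50 pmoles of a 30-nt RNA substrate for 1 h at 37 °C across several added MgCl2 levels (1–48 mM), then stopped with EDTA. Products were reverse transcribed from a substrate-complementary primer, PCR-amplified and sequenced (HiSeq 4000). Fitness is a variant's read proportion after selection over that before, normalised to wild type.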

Variant | reverse-splicing fitness
C82G A111C A120C A145G C150G C169U U176A | 0.0116
C82G A111C A120C A145G C150G C169U U176G | 0.0072
C82A C150A C169G U176C | 0.0241
C82A C150A C169G U176A | 0.0198
C82A C150A C169G U176G | 0.0072
C82G | 0.499
C82A A145U C169U U176G | 0.00434
C82A A145U C169U U176A | 0.0117
C82A A145U C169U U176C | 0.0127
C82G A111C A120C C150A C169A U176G | 0.00868
C82G A111C A120C C150A C169A U176A | 0.0164
C82G A111C A120C C150A C169A U176C | 0.019
C82G A111C A120C A145G C150A | 0.0148
C82G A111C A120C A145G C150U | 0.0408
C82G A111C A120C A145G C150G | 0.0102
C82G A111C A120C A145G C169A | 0.00871
C82G A111C A120C A145G C169U | 0.0139
C82G A111C A120C A145G C169G | 0.00771
C82G A111C A120C A145C C150U U176G | 0.00681
C82G A111C A120C A145C C150U U176C | 0.0129
C82G A111C A120C A145C C150U U176A | 0.0114

Variant | reverse-splicing fitness
C82G A111C A120C A145G C150A C169G U176A | 0.0156
C82G A111C A120C A145G C150A C169G U176G | 0.00768
C82G A111C A120C A145G C150A C169G U176C | 0.0228
C82G A111C A120C C150G C169A U176A | 0.00918
C82G A111C A120C C150G C169A U176G | 0.00619
C82G A111C A120C C150G C169A U176C | 0.0137
C82G A111C A120C C150U C169G U176C | 0.0171
C82G A111C A120C C150U C169G U176A | 0.0152
C82G A111C A120C C150U C169G U176G | 0.0066
C82G A111C A120C A145U C150U C169U | 0.0116
C82G A111C A120C A145U C150U C169A | 0.0102
C82G A111C A120C A145U C150U C169G | 0.00788
C82G A111C A120C A145G C150G U176A | 0.00652
C82G A111C A120C A145G C150G U176G | 0.00667
C82G A111C A120C A145G C150G U176C | 0.0113
C82G A111C A120C A145U U176A | 0.0196
C82G A111C A120C A145U U176C | 0.0239
C82G A111C A120C A145U U176G | 0.00884
C82G A111C A120C C169A U176A | 0.0156
C82G A111C A120C C169A U176G | 0.0072
C82G A111C A120C C169A U176C | 0.0194

Variant | reverse-splicing fitness
C82G A111C A120C A145U C150G C169G U176C | 0.00759
C82G A111C A120C A145U C150G C169G U176A | 0.0088
C82G A111C A120C A145U C150G C169G U176G | 0.00673
C82G A111C A120C C150A C169G U176G | 0.00766
C82G A111C A120C C150A C169G U176C | 0.0225
C82G A111C A120C C150A C169G U176A | 0.0183
C82G A111C A120C C150U C169U | 0.0139
C82G A111C A120C C150U C169G | 0.00825
C82G A111C A120C C150U C169A | 0.0099
C82G A111C A120C A145C C150A C169G U176C | 0.0215
C82G A111C A120C A145C C150A C169G U176A | 0.0271
C82G A111C A120C A145C C150A C169G U176G | 0.00758
C82G A111C A120C A145G C150A C169A U176A | 0.0165
C82G A111C A120C A145G C150A C169A U176G | 0.00862
C82G A111C A120C A145G C150A C169A U176C | 0.0188
C82G A111C A120C A145U C150G C169U U176G | 0.0068
C82G A111C A120C A145U C150G C169U U176C | 0.0121
C82G A111C A120C A145U C150G C169U U176A | 0.00736
C82G A111C A120C A145C C150G C169U U176A | 0.00824
C82G A111C A120C A145C C150G C169U U176G | 0.00572
C82G A111C A120C A145C C150G C169U U176C | 0.0123

Variant | reverse-splicing fitness
C82G A111C A120C A145G C150A C169U | 0.0117
C82G A111C A120C A145G C150A C169G | 0.00768
C82G A111C A120C A145G C150A C169A | 0.0122
C82G A111C A120C A145U C150A | 0.011
C82G A111C A120C A145U C150G | 0.00916
C82G A111C A120C A145U C150U | 0.0335
C82G A111C A120C A145U C150U U176G | 0.00688
C82G A111C A120C A145U C150U U176C | 0.02
C82G A111C A120C A145U C150U U176A | 0.0132
C82G A111C A120C A145U C169G | 0.00877
C82G A111C A120C A145U C169U | 0.0143
C82G A111C A120C A145U C169A | 0.00731
C82G A111C A120C C150G C169U U176G | 0.00751
C82G A111C A120C C150G C169U U176C | 0.0107
C82G A111C A120C C150G C169U U176A | 0.00786
C82G A111C A120C A145G C150G C169U | 0.00874
C82G A111C A120C A145G C150G C169A | 0.00885
C82G A111C A120C A145G C150G C169G | 0.00708
C82G A111C A120C A145C C169G U176C | 0.0205
C82G A111C A120C A145C C169G U176A | 0.0259

Source: the RNAGym collection of RNA variant scans (doi:10.1093/molbev/msab373)
